Data as given in patent US7063946B2, “Methods, reagents, kits and apparatus for protein function analysis” (Meso Scale Technologies, LLC., priority 2001, dated 2006).
Residue numbers refer to the chain shown, from its start. Names and notes keep the numbering of the source.

B1: RGS4: Regulator of G-protein signaling 4, in vitro translated from plasmid pcDNA3-RGS4 (protein, UniProt P49798 1-205, looked up)
Regulator of G-protein …: MCKGLAGLPASCLRSAKDMKHRLGFLLQKSDSCEHNSSHNKKDKVVICQRVSQEEVKKWAESLENLISHECGLAAFKAFLKSEYSEENIDFWISCEEYKKIKSPSKLSPKAKKIYNEFISVQATKEVNLDSCTREETSRNMLEPTITCFDEAQKKIFNLMEKDSYRRFLKSRFYLDLVNPSSCGAEKQKGAKSSADCASLVPQCA
B2: RGS4-C2V: RGS4C2V mutant, in vitro translated from pcDNA3-RGS4-C2V (protein, UniProt P49798 1-205, looked up, variant C2V)
Regulator of G-protein …: B1 Regulator of G-protein … with C2V
B3: 3919253: IMAGE clone protein: BMX non-receptor tyrosine kinase (protein)
chain: MDTKSILEELLLKRSQQKKKMSPNNYKERLFVLTKTNLSYYEYDKMKRGSRKGSIEIKKIRCVEKVNLEEQTPVERQYPFQIVYKDGLLYVYASNEESRSQWLKALQKEIRGNPHLLVKYHSGFFVDGKFLCCQQSCKAAPGCTLWEAYANLHTAVNEEKHRVPTFPDRVLKIPRAVPVLKMDAPSSSTTLAQYDNESKKNYGSQPPSSSTSLAQYDSNSKKIYGSQPNFNMQYIPREDFPDWWQVRKLKSSSSSEDVASSNQKERNVNHTTSKISWEFPESSSSEEEENLDDYDWFAGNISRSQSEQLLRQKGKEGAFMVRNSSQVGMYTVSLFSKAVNDKKGTVKHYHVHTNAENKLYLAENYCFDSIPKLIHYHQHNSAGMITRLRHPVSTKANKVPDSVSLGNGIWELKREEITLLKELGSGQFGVVQLGKWKGQYDVAVKMIKEGSMSEDEFFQEAQTMMKLSHPKLVKFYGVCSKEYPIYIVTEYISNGCLLNYLRSHGKGLEPSQLLEMCYDVCEGMAFLESHQFIHRDLAARNCLVDRDLCVKVSDFGMTRYVLDDQYVSSVGTKFPVKWSAPEVFHYFKYSSKSDVWAFGILMWEVFSLGKQPYDLYDNSQVVLKVSQGHRLYRPHLASDTIYQIMYSCWHELPEKRPTFQQLLSSIEPLREKDKH

Experiments:
[1] = tested on: ubiquitin-proteasome system (N-end rule pathway) in reticulocyte lysate; test: ECL assay for ubiquitylation in reticulocyte lysate using Sulfo-TAG-labeled Ub, streptavidin-coated IPR plate; format: biochemical, rabbit; conditions: for IPR readings, Experiment 1 / IPR readings, Experiment 2: Sulfo-TAG-labeled Ub, reticulocyte lysate +
Description: (§1) Binding Buffer 2 (BB2) refers to 25 mM Tris-HCl buffer pH 7.4 containing 100 mM NaCl, 0.05 mM Na3VO4, 0.004% TritonX-100, 2 mM DTT and protease inhibitors (protease inhibitor cocktail, EDTA free, Roche Applied Science). Proteins were produced by coupled transcription/translation using TnT reaction mixes (Promega Corp, WI). The TNT Quick coupled transcription-translation system (Promega) contains rabbit reticulocyte lysate pre-mixed with most of the reaction components necessary to carry out transcription and translation in vitro (TNT mix), including all the amino acids except methionine. Unless otherwise noted, biotin-labeled in vitro translated proteins were produced in reaction mixtures that contained 8–30 μg/ml of a selected plasmid encoding protein of interest, 5 μl of TNT T7 Quick reticulocyte lysate mix (Promega Corp, WI) or TnT SP6 Quick Coupled Transcription/Translation System (Promega Corp, WI), 20 μM methionine, 50 μM MG-132 (Calbiochem, proteasome inhibitor to inhibit degradation of ubiquitylated proteins by proteasome) and 20 μg/ml biotinylated Lys-tRNA (transcend tRNA, Promega). The reactions were allowed to proceed for 20–90 min at 30° C. The reactions were stopped by the addition of BB1 supplemented with 20 mM AMP-PNP (Sigma, a non-hydrolyzable ATP analog), 20 mM N-ethylmaleimide (Sigma, an irreversible inhibitor of deubiquitylating enzymes) or, alternatively, by the addition of BB2. BB1 was used in screens involving the ubiquitination pathway. BB2 was used for other assay formats. The produced proteins were used in the assays of interest with or without further purification.
RGS4 was produced by transcription/translation of 30 μg/ml plasmid pcDNA3-RGS4 (Davydov and Varshavsky, 2000, J. Biol. Chem., 275:22931–22941) under the conditions described in Materials and Methods except for the addition of 1 μM Ub aldehyde (Calbiochem, to inhibit deubiquitylating enzymes) and 5 μM Sulfo-Tag-labeled Ub (having an average of 4.1 labels per Ub molecule). Then 3 μl of the reaction was mixed with 50 μl of BB1 in a 96-well streptavidin-coated non-plasma treated IPR (NPT IPR) plate.

[2] = tested on: N-end rule pathway ubiquitylation in reticulocyte lysate; test: ECL ubiquitylation assay using Sulfo-TAG-labeled streptavidin and IPR plate coated with FK2 antibody; format: biochemical, rabbit; conditions: for IPR readings, Experiment 1 / IPR readings, Experiment 2: no dipeptide inhibitor
Description: as §1
Transcription-translation reaction mixtures were prepared as described in the Example 1 except that no labeled ubiquitin was added. Some reactions also contained 1 mM dipeptide inhibitor of the N-end rule pathway (either Arg-β-Ala, or Trp-Ala) together with 50 μM bestatin as indicated (Table 2). The reaction was allowed to proceed for 20 min at 30° C. Then 1 μl of the reaction was mixed with 50 μl of BB1 supplemented with 20 mM AMP-PNP, 20 mM N-ethylmaleimide, and 2 μg/ml Sulfo-TAG-labeled streptavidin in a well of an IPR plate coated with an anti-ubiquitin antibody (FK2 antibody, Affiniti). […] In a typical assay the presence of RGS4-encoding plasmid produced a 30–100 fold higher ECL signal compared to the empty vector (FIG. 2, Table 2). This signal was reduced 3–4 fold in the presence of Arg-β-Ala (a type 1 inhibitor of the N-end rule pathway), but not in the presence of Trp-Ala (a type 2 inhibitor of the N-end rule pathway) in agreement with the previous report that RGS4 is a type 1 N-end rule substrate in reticulocyte lysates (Davydov and Varshavsky, 2000, J. Biol. Chem., 275:22931–22941). In the same assay RGS4 produced 3–5 fold higher ECL signal compared to RGS4C2V, when the same amounts of the corresponding plasmids were added to the reaction mixtures (Table 2).

[3] = tested on: ubiquitylation in reticulocyte lysate; test: ECL ubiquitylation assay using Sulfo-TAG-labeled FK2 antibody and streptavidin-coated IPR plate; format: biochemical, rabbit
Description: The protein was prepared as described Example 2 and mixed with 60 μg/ml Sulfo-TAG-labeled FK2 antibody (Affiniti) having 5.6 labels per antibody, in a streptavidin-coated NPT IPR plate.

[4] = tested on: ubiquitylation in reticulocyte lysate; test: Ubiquitylation assay using Sulfo-TAG labeled Ub, streptavidin magnetic beads, M-8 Analyzer; format: biochemical, rabbit
Description: Then 10 μl of the reaction product was mixed with 50 μl of BB1 supplemented with 20 mM AMP-PNP, 20 mM N-ethylmaleimide, and 20 μg streptavidin coated magnetic beads (Streptavidin Dyna-Beads, Dynal) in a 96-well plate. […] Thereafter the volume in each well was adjusted to 200 μl with binding buffer, and ECL signals were measured in M-8 Analyzer (IGEN International, Inc., Gaithersburg, Md.).

[5] = tested on: ubiquitylation in reticulocyte lysate; test: Ubiquitylation assay using Sulfo-TAG labeled FK2 antibody, streptavidin magnetic beads, M-8 Analyzer; format: biochemical, rabbit
Description: Transcription-translation reaction mixtures containing pcDNA3-RGS4 or pcDNA3-RGS4-C2V plazmids(Davydov and Varshavsky, 2000, J. Biol. Chem., 275:22931–22941) were prepared and used as described in the Example 2. The reaction products were mixed with 3 μg Sulfo-TAG labeled FK2 antibody in a 96-well plate in a binding buffer. Sulfo-TAG labeled FK2 antibody had 5.6 Sulfo-TAG labels per antibody molecule. […] Then 30 μl of BB1 supplemented with 20 mM AMP-PNP, 20 mM N-ethylmaleimide and containing 20 μg dynal beads streptavidin (Dynal) were added to each well, and the plate was left on the shaker at room temperature for another hour to allow for binding of biotinylated proteins to dynal beads. Thereafter the volume in each well was adjusted to 200 μl with BB1, and ECL signals were measured in M-8 Analyzer (IGEN International, Inc., Gaithersburg Md.).

[6] = target: T1, pY1068 peptide (SEQ ID NO: 7) (Homo sapiens, UniProt P00533); test: 96-well screen for phosphopeptide binding proteins, 7-spot IPR plates; conditions: two steps of normalization; top 9 clones
T1 construct: phosphotyrosine at Tyr1068 (chemical modification); purchased New England Peptide, Fitchburg Mass; host or cells: chemical synthesis
Description: A screen was conducted using 7-spot IPR plates. The 7 spot NPT IPR plates are described in more detail in copending Provisional Application No. 60/301,932 (entitled “Assay Plates, Reader Systems and Methods for Luminescence Test Measurements”, filed on Jun. 29, 2001, hereby incorporated by reference) and particularly in the description of Plate Type D in Example 6.1 (NPT IPR plate) and U.S. application Ser. Nos. 10/185,274 and 10/185,363, filed Jun. 28, 2002, each hereby incorporated by reference. These plates consist of a 96 wells with 7 zones (spots) for the immobilization of proteins or other reagents. Each spot was coated with BSA conjugated to either a single phosphopeptide or multiple phosphopeptides.
The plates were prepared essentially as described in example 12. The seven spots supported, respectively, the following BSA conjugates IkB, pY992, pY1068, pY1148, Myc, “A”, and “6-P”. “A” refers to a conjugate of BSA with multiple peptides: IkB, pY1148, Myc which were then coupled to BSA. “6-P” refers to a conjugate of BSA with the following multiple peptides: IkB, pY1148, pY992, pY1068, Smad3C.
For the assay, 4 ul from TnT reaction product described above were added to the coated plate containing 50 μl of binding buffer supplemented with 50 ng/well Ru-Streptavidin. The binding reaction was allowed to proceed at room temperature for 1 hour with constant shaking. […] The ECL signals were measured using an imaging plate reader (IPR). The raw data from the IPR reader was then normalized using two steps of normalization. The first round was based on the 50 lowest values for a given specific spot.

pEY = test: In vitro kinase library screen: activity towards pEY; format: biochemical; conditions: 5 ul of expressed protein
How it was run: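 Kinases made by in vitro transcription/translation, immobilised on streptavidin/avidin plates and washed with Tris/Triton and high-salt buffers. Incubated overnight at room temperature with 5 nM pEY, 100 µM ATP, Mg2+/Mn2+ and vanadate at pH 7.4. Phospho-pEY captured with biotinylated PY20 and detected by Sulfo-TAG anti-phosphotyrosine ECL.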

[7] = tested on: autophosphorylation (phosphotyrosine); test: In vitro kinase library screen: autophosphorylation; format: biochemical
How it was run: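 Biotinylated SYK and EphA7 from in vitro transcription/translation, immobilized on streptavidin/avidin plates; autophosphorylation overnight at room temperature with 5 mM MgCl2, 5 mM MnCl2, 100 μM ATP, pH 7.4. Phosphotyrosine detected by Sulfo-TAG anti-phosphotyrosine (45 min) and ECL read-out.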

Row | Molecule | IPR readings, Experiment 1 [1] | IPR readings, Experiment 2 [1] | fold higher ECL signal compared to RGS4C2V ([1]; same amounts of plasmids) | fold higher ECL signal compared to the empty vector ([1]; typical experiment) | IPR readings, Experiment 1 [2] | IPR readings, Experiment 2 [2] | fold higher ECL signal compared to RGS4C2V ([2]; same amounts of plasmids) | fold higher ECL signal compared to the empty vector ([2]; typical assay) | IPR readings ([3]; reticulocyte lysate +) | fold higher ECL signal compared to the empty vector ([3]; typical assay) | M-8 readings, Experiment 1 [4] | M-8 readings, Experiment 2 [4] | M-8 readings [5] | normalized ECL signal, pY1068 spot [6] | HTS signal (pEY) | ECL signal [7]
1 | B1 | 29294 | 27303 | 3–4 fold | 5–15 fold | 23441 | 23137 | 3–5 fold | 30–100 fold | 85993 | 15–30 fold | 87339 | 71463 | 187328 |  |  | 
2 | B2 | 7744 | 7614 |  |  | 5567 | 5362 |  |  |  |  | 30201 | 26712 | 14689 |  |  | 
3 | B3 |  |  |  |  |  |  |  |  |  |  |  |  |  | 3 | 523,662 | 443,933
